The values that follow are results of earlier work, collected in publication PMC554781.

The data set has as its target CD200R (Homo sapiens) (UniProt Q8TD46).
UniProt Q8TD46, sequence (Q8TD46 25-265): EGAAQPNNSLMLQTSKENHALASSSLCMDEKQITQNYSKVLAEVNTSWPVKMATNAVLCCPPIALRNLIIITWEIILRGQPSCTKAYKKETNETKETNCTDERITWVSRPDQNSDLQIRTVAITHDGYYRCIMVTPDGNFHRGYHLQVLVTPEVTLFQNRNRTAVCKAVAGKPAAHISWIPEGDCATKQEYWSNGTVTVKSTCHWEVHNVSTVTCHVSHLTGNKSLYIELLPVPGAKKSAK

Usually Kd stands for the concentration at which binding is half-saturated. In the case of CD200 (from UniProt P41217), the Kd was 500 nM.
